One molecule from publication PMC9995077 (Science Advances, 2023) can be followed below.

One test concerns the target Ino80-K929R-FLAG (S. cerevisiae, UniProt P53115 1-1489, K929R). The experiment in a line: co-IP.
The target of test [1] is Ino80-FLAG (endogenously expressed FLAG-tagged Ino80) (S. cerevisiae (endogenous in yeast …, UniProt P53115 1-1489)). As to the kind of experiment: co-IP.
Ino80-FLAG (endogenously expressed FLAG-tagged Ino80) (S. cerevisiae, sequence (P53115 whole entry): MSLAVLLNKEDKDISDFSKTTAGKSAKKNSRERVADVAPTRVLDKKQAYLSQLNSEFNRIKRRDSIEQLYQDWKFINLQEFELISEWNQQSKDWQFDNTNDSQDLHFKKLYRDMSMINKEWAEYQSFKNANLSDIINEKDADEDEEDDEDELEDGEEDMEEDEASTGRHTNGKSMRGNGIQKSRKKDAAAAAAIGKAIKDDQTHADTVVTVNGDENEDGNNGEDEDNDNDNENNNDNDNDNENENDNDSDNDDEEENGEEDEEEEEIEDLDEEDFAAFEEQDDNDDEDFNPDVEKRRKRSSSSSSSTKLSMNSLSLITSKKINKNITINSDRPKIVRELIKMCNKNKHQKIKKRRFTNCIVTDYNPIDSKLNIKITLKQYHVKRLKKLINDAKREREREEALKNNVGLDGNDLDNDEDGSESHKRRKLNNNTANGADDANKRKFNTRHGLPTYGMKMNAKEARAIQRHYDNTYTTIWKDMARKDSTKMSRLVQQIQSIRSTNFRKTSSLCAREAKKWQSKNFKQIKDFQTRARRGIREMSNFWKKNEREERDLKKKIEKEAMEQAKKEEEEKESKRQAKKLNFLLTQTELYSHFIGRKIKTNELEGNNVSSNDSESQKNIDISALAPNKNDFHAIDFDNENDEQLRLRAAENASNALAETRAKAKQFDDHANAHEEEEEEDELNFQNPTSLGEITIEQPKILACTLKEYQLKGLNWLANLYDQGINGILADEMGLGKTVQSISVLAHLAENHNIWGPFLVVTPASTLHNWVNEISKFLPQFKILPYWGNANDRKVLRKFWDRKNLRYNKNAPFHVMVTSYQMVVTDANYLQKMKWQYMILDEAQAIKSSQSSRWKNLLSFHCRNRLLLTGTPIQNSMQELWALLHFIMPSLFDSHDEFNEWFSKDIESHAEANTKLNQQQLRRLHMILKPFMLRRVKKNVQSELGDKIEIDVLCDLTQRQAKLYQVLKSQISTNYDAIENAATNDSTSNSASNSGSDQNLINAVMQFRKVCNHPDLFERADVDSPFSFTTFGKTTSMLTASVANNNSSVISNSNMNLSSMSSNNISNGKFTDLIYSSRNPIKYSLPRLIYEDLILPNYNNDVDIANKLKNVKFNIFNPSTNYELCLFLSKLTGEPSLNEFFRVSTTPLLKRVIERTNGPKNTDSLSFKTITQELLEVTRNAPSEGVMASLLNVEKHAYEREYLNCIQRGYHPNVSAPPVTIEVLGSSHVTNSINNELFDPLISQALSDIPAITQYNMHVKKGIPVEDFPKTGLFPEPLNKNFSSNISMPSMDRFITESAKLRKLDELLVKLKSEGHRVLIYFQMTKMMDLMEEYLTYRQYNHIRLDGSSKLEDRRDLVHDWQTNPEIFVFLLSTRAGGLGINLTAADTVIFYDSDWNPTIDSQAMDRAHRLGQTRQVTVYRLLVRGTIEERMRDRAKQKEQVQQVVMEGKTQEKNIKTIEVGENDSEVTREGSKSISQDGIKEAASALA

Ino80-K929R-FLAG, sequence (P53115 whole entry K929R): as the sequence (P53115 whole entry) above, with K929R counted along it

B1: Atg11-CBP (tandem affinity-purified Atg11) (natural protein)
chain: MADADEYSTAPTQQEITPLQTTATIINAISGECITTNVDFFVSLDKFKQFIARKWKIPPDQLLILLPYGNKLKPSMFKELLINRSFTLNDFYVYDRRLFSLVSKPTPTNLLTSKDSNPMNSPNSNDLTETLEYLIKNSHISQYQGSDTIMIKPMPSPLEDADVDLSRLNYHSVTSLLTTNLGWLSALEIDVHYFKSLIPDIIAHIKRIFDGLTVCSQYLKLYCFDVESLYNSNVQFLNQLVDNGMTSKWEKCFNDTLSKLTALEGDSLQKFINIESLLENEKSVKILNHSINGKLNKIKREIDENASFRDIITVNIDRLRQMFTPNESKFELEDQMAESFEVLVSEMRTRSRNVLDKEEEEFNSQEFLKSMNVMLEKDKKESVKTLFTISQALYSQIGELIDLKKSLQKHAVAILGNIAFTQMEILGIKRLLLNECNKDLELYKKYEVEFAQVEDLPLIYGLYLIEKYRRLSWFQQILSFISNFNQDLELFKQNELRTRNKWVKNFGSIATVFCEDLLSSSDFKRLNEYHSHTSPPNEDEEDENENSIANYRQDLVKVSQAIDNYMTQIKETDVSEPIIDLLSKTLFETKRFHIIYSNFKNNNNNSSNGNSISPEGSIALKSDDVVKGYKTRIKKLESLLHEFQYSDIGHWPQGVLNTHLKPFRGSATSINKKKFLGASVLLEPANISEVNIDSVSQANNHQIQELESNVDDLLHQLQLLKEENNRKSMQISEMGKKISDLEVEKTAYRETLTNLNQELARLTNEEQSHRTEIFTLNASFKKQLNDIISQDNEKIEKLTGDYDDVSKSRERLQMDLDESNKKHEQEVNLLKADIERLGKQIVTSEKSYAETNSSSMEKGEKFETIPLAEDPGRENQISAYTQTLQDRIFDIISTNIFILENIGLLLTFDNNNNIQIRRVKGLKKGTAQSNILDESTQMLDAHDNSLIKSPVFQKLKDEYELIKSVANGSEKDTQQSIFLGNITQLYDNKLYEVAVIRRFKDIETLAKKLTKENKIKRTLLERFQREKVTLRNFQIGDLALFLPTRENVNSVGSMSSSTSSLSSSFSSVDLSTPPPLDAMSIQSSPSVIHSNVINQASISGRDKNKLMRPWAAFTAFEESTRYFLKDEKGLTKGKEWFVGRIVTLEHFVADSPSNNPFRLPKGSVWFQVTAVVVSYQGV
For the molecule B1, the binding result (with Ino80-K929R-FLAG; in test [1]) was “binds” each time.
